Experimental data from patent publication US20230272056A1 (Merck Sharp & Dohme, published 2023).
Substitutions are numbered along the chain they refer to. Names may count otherwise.

B1: VH G57D (27BIT) (Fab, V domains shown)
VH: EVQLVQSGAEVKKPGASVKVSCKASGYTFTSYWMHWVRQAPGQGLEWMGRIDPQSGDIKYAQKFQGRATLTVDTSTSTAYMELSRLRSDDTAVYYCARWDYGGYFDVWGQGTLVTVSS
VL: DIQMTQSPSSLSASVGDRVTITCRASQDITNYLNWYQQKPGKAVKLLIYYTSRLHSGVPSRFSGSGSGTDYTLTISSLQPEDFATYFCQQGDTLPWTFGQGTKLEIKR
notes: Light chain: parental 20E6 LC, implied
B2: VH G102S (29BIT) (Fab, V domains shown)
VH: B1 VH with D57G, G102S
VL: B1 VL
notes: as for B1
B3: VH G57E (63BIT) (Fab, V domains shown)
VH: B1 VH with D57E
VL: B1 VL
notes: as for B1
B4: VL S52Y (49BIT) (Fab, V domains shown)
VH: B1 VH with D57G
VL: B1 VL with S52Y
B5: VL P95Y (60BIT) (Fab, V domains shown)
VH: B1 VH with D57G
VL: B1 VL with P95Y
B6: VL S26Y (40BIT) (Fab, V domains shown)
VH: B1 VH with D57G
VL: B1 VL with S26Y
B7: VL L33Y (46BIT) (Fab, V domains shown)
VH: B1 VH with D57G
VL: B1 VL with L33Y
B8: VL Q90Y (55BIT) (Fab, V domains shown)
VH: B1 VH with D57G
VL: B1 VL with Q90Y
B9: VL T30Y (44BIT) (Fab, V domains shown)
VH: B1 VH with D57G
VL: B1 VL with T30Y
B10: VL D28Y (42BIT) (Fab, V domains shown)
VH: B1 VH with D57G
VL: B1 VL with D28Y
B11: VL L94Y (59BIT) (Fab, V domains shown)
VH: B1 VH with D57G
VL: B1 VL with L94Y
B12: VL A25Y (39BIT) (Fab, V domains shown)
VH: B1 VH with D57G
VL: B1 VL with A25Y
B13: VH T30Y (69BIT) (Fab, V domains shown)
VH: B1 VH with T30Y, D57G
VL: B1 VL
B14: VL T51Y (48BIT) (Fab, V domains shown)
VH: B1 VH with D57G
VL: B1 VL with T51Y
B15: VL Q27Y (41BIT) (Fab, V domains shown)
VH: B1 VH with D57G
VL: B1 VL with Q27Y
B16: VL N31Y (45BIT) (Fab, V domains shown)
VH: B1 VH with D57G
VL: B1 VL with N31Y
B17: VL R24Y (38BIT) (Fab, V domains shown)
VH: B1 VH with D57G
VL: B1 VL with R24Y
B18: VL T93Y (58BIT) (Fab, V domains shown)
VH: B1 VH with D57G
VL: B1 VL with T93Y
B19: VH R50Y (75BIT) (Fab, V domains shown)
VH: B1 VH with R50Y, D57G
VL: B1 VL
notes: also called VH RSOY (75BIT)
B20: VL R53Y (50BIT) (Fab, V domains shown)
VH: B1 VH with D57G
VL: B1 VL with R53Y
B21: VL I29Y (43BIT) (Fab, V domains shown)
VH: B1 VH with D57G
VL: B1 VL with I29Y
B22: VL S56Y (53BIT) (Fab, V domains shown)
VH: B1 VH with D57G
VL: B1 VL with S56Y
B23: VL L54Y (51BIT) (Fab, V domains shown)
VH: B1 VH with D57G
VL: B1 VL with L54Y
B24: VH W95Y (88BIT) (Fab, V domains shown)
VH: B1 VH with D57G, W99Y
VL: B1 VL
B25: VH W33Y (71BIT) (Fab, V domains shown)
VH: B1 VH with W33Y, D57G
VL: B1 VL
B26: VL Q89Y (54BIT) (Fab, V domains shown)
VH: B1 VH with D57G
VL: B1 VL with Q89Y
B27: VL G91Y (56BIT) (Fab, V domains shown)
VH: B1 VH with D57G
VL: B1 VL with G91Y
B28: VL N34Y (47BIT) (Fab, V domains shown)
VH: B1 VH with D57G
VL: B1 VL with N34Y
B29: VL H55Y (52BIT) (Fab, V domains shown)
VH: B1 VH with D57G
VL: B1 VL with H55Y
B30: VH S31Y (70BIT) (Fab, V domains shown)
VH: B1 VH with S31Y, D57G
VL: B1 VL
B31: VL D92Y (57BIT) (Fab, V domains shown)
VH: B1 VH with D57G
VL: B1 VL with D92Y
B32: VH T28Y (67BIT) (Fab, V domains shown)
VH: B1 VH with T28Y, D57G
VL: B1 VL
B33: VH S54Y (80BIT) (Fab, V domains shown)
VH: B1 VH with S55Y, D57G
VL: B1 VL

What follows are binders tested against T1, human LAP-TGFB1 Fc fusion (human) (assay: BLI off-rate screen).
T1 construct: also called human LAP-TGFβ1-Fc; human LAP-TGFβ-Fc isoform 1
T1 sequence (chain, as listed by the source limits assumed): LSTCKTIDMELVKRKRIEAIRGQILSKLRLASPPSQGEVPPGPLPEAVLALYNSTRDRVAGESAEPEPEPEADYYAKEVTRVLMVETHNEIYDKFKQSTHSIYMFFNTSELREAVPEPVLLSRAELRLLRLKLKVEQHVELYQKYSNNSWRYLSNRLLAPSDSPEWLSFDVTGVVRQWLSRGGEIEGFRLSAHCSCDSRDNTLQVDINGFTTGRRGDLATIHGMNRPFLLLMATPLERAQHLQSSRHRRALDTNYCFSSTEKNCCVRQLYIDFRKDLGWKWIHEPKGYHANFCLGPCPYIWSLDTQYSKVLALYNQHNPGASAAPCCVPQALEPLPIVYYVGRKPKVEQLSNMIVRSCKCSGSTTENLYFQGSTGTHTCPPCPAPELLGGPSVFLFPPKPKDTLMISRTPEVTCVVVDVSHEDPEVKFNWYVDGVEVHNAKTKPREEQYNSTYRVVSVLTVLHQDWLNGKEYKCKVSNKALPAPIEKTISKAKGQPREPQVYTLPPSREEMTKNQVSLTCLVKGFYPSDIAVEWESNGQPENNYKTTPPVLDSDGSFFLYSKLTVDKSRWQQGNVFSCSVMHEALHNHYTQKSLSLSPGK
Procedure: (§1) The Fab mutants including a positive control, 20E6 Fab, and a negative control Fab (Molecular Innovations, catalog HU-FAB-4510) were diluted to 200 nM in assay buffer and loaded to FAB2G sensors for 180 seconds followed by a one-hour incubation at room temperature in assay buffer to equilibrate the tips. The Fab loaded sensors were assessed for binding with 100 nM human LAP-TGFβ for 180 seconds followed by a 180 second dissociation phase in assay buffer on a ForteBio HTX (software version 9.0.0.66). Non-specific binding to the negative control Fab was subtracted and the binding sensorgrams were aligned to the start of the association phase on the X and Y axis. The Fab binding was fit with the 1:1 binding model, dissociation phase only, with local fitting using ForteBio Data Analysis 9.0 software.

Binder | Binding response | Fold change | koff
B1 | 0.582 nm | 1.3 fold | 0.0337 s⁻¹
B2 | 0.087 nm | 0.5 fold | 0.0845 s⁻¹
B3 | 0.69 nm | 1.1 fold | 0.0393 s⁻¹

Target: T1, human LAP-TGFB1 Fc fusion
Experiment: BLI off-rate screen
Remark: another data set of the same source
Procedure: as §1
Twenty-three variants containing a single tyrosine substitution in the light chain CDRs (at one of amino acid positions 24-31, 33, 34, 51-56, and 89-95 according to Kabat numbering scheme) and 21 similar heavy chain CDR variants (at amino acids positions 28-31, 33-35, 50-58 including 52a, 95, 96, 98, and 99 according to Kabat numbering scheme) were generated according to FIG. 1 and listed in Table 6 and their interactions with human LAP-TGFb1 were analyzed by ForteBio interferometry. […] In those sequences the VL is correct, even though these sequences are from the heavy chain. Thus, the VL_X ##Y refers to the position of the tyrosine mutation within the antibody, regardless of whether the sequence is a heavy or light chain.

Binder | Binding response | Fold change | koff | binding result
B4 | 0.431 nm | 1 fold | 0.0409 s⁻¹ | 
B5 | 0.015 nm |  |  | no binding (tested: 100 nM antigen)
B6 | 0.371 nm | 1.5 fold | 0.0283 s⁻¹ | 
B7 | 0.095 nm | 1 fold | 0.0413 s⁻¹ | 
B8 | 0.04 nm |  |  | no binding (tested: 100 nM antigen)
B9 | 0.472 nm | 2.6 fold | 0.0162 s⁻¹ | 
B10 | 0.207 nm | 1.3 fold | 0.0318 s⁻¹ | 
B11 | 0.308 nm | 0.7 fold | 0.0571 s⁻¹ | 
B12 | 0.043 nm |  |  | no binding (tested: 100 nM antigen)
B13 | 0.372 nm | 1.2 fold | 0.0365 s⁻¹ | 
B14 | 0.204 nm | 0.8 fold | 0.0508 s⁻¹ | 
B15 | 0.427 nm | 1.8 fold | 0.0229 s⁻¹ | 
B16 | 0.344 nm | 1.8 fold | 0.0241 s⁻¹ | 
B17 | 0.446 nm | 1.6 fold | 0.027 s⁻¹ | 
B18 | 0.586 nm | 1.5 fold | 0.0273 s⁻¹ | 
B19 | 0.324 nm | 0.9 fold | 0.0445 s⁻¹ | 
B20 | 0.365 nm | 1.6 fold | 0.027 s⁻¹ | 
B21 | 0.071 nm | 1.6 fold | 0.0264 s⁻¹ | 
B22 | 0.344 nm | 1.3 fold | 0.0324 s⁻¹ | 
B23 | 0.299 nm | 1 fold | 0.0405 s⁻¹ | 
B24 | 0.638 nm | 1 fold | 0.0425 s⁻¹ | 
B25 | 0.77 nm | 1.8 fold | 0.023 s⁻¹ | 
B26 | 0.035 nm |  |  | no binding (tested: 100 nM antigen)
B27 | 0.044 nm |  |  | no binding (tested: 100 nM antigen)
B28 | 0.221 nm | 1 fold | 0.0436 s⁻¹ | 
B29 | 0.265 nm | 1.1 fold | 0.0385 s⁻¹ | 
B30 | 0.696 nm | 1.2 fold | 0.0361 s⁻¹ | 
B31 | 0.046 nm |  |  | no binding (tested: 100 nM antigen)
B32 | 0.326 nm | 1.2 fold | 0.0343 s⁻¹ | 
B33 | 0.588 nm | 1 fold | 0.0406 s⁻¹ | 
